Source: ChEMBL document CHEMBL4321859, “Unforeseen Possibilities To Investigate the Regulation of Polyamine Metabolism Revealed by Novel C-Methylated Spermine Derivatives” (J Med Chem, 2019)

Substrate: CC(CN)CNCCCCNCC(C)CN
Test: Substrate activity at recombinant human SMOX assessed as Km at 2000 to 6000 uM
Format: ADME

B1: Spermine oxidase (Homo sapiens) (protein)
chain: MQSCESSGDSADDPLSRGLRRRGQPRVVVIGAGLAGLAAAKALLEQGFTDVTVLEASSHIGGRVQSVKLGHATFELGATWIHGSHGNPIYHLAEANGLLEETTDGERSVGRISLYSKNGVACYLTNHGRRIPKDVVEEFSDLYNEVYNLTQEFFRHDKPVNAESQNSVGVFTREEVRNRIRNDPDDPEATKRLKLAMIQQYLKVESCESSSHSMDEVSLSAFGEWTEIPGAHHIIPSGFMRVVELLAEGIPAHVIQLGKPVRCIHWDQASARPRGPEIEPRGEGDHNHDTGEGGQGGEEPRGGRWDEDEQWSVVVECEDCELIPADHVIVTVSLGVLKRQYTSFFRPGLPTEKVAAIHRLGIGTTDKIFLEFEEPFWGPECNSLQFVWEDEAESHTLTYPPELWYRKICGFDVLYPPERYGHVLSGWICGEEALVMEKCDDEAVAEICTEMLRQFTGNPNIPKPRRILRSAWGSNPYFRGSYSYTQVGSSGADVEKLAKPLPYTESSKTAPMQVLFSGEATHRKYYSTTHGALLSGQREAARLIEMYRDLFQQGT
Protein B1 has a Km of 121 µM and a Vmax of 0.124 µmol/min/mg.
